Six molecules from article PMC9903292, “A Reductive Aminase Switches to Imine Reductase Mode for a Bulky Amine Substrate” (ACS Catalysis, 2023) can be followed below.

For series [1], the target named is T1, IR77 (wt-IR77) (Ensifer adhaerens, UniProt A0A0L8BGL4, A208N).
T1 construct: gene AC244_29830; domain-swapped homodimer, two active sites at the interface
Briefly: X-ray crystallography. It counts as binding. As to conditions: cofactor site at the dimer interface; P2_12_12_1, one open and one closed active site.

Substrate in series [2]: c1ccc2c(c1)CNC2
In words: purified protein. As to conditions: co-substrate 10 mM cyclohexanone, NADPH.

Substrate in series [3]: C1CCNC1
In words: purified protein. As to conditions: NADPH.

Substrate in series [4]: O=C1CCCCC1
Briefly: UV spectrophotometry, NADPH oxidation. Type of series: biochemical, Ensifer adhaerens. As to conditions: co-substrate pyrrolidine b at constant concentration.

Substrate in series [5]: O=C1CCCCC1
In words: UV spectrophotometry, NADPH oxidation. Type of series: biochemical, Ensifer adhaerens. As to conditions: co-substrate pyrrolidine b at constant concentration. From the text:
UV spectrophotometry, NADPH oxidation on IR77 (wt-IR77)
This is another data set of the same source.

The mark [6] stands for this setting: imine probably formed in solution and then reduced by the enzyme.
[7] abbreviates: co-substrate 10 mM cyclohexanone, reductive amination.
Where [8] appears, read: reductive amination, 16 mM and kcat 0.25.
[9] abbreviates: co-substrate cyclohexanone at constant concentration.
The mark [10] stands for this setting: imine probably formed in solution.

Turning to `NC(=O)c1ccc[n+]([C@@H]2O[C@H](COP(=O)(O)OP(=O)(O)OC[C@H]3O[C@@H](n4cnc5c(N)ncnc54)[C@H](OP(=O)(O)O)[C@@H]3O)[C@@H](O)[C@H]2O)c1` [NADP^+], the X-ray crystallography result in series [1] is listed as “electron density for the cofactor NADP^+ was again clearly visible within the active sites”.

B1: IR77 (wt-IR77) (Ensifer adhaerens) (protein)
chain: MKPSISVLGTGRMGSALARALLQAGYRTVVWNRTSEKAEPLAALGATVAPTVRQAIDASGIVIVNVSDYAATSTLLRASDVTPGLRGKLIVELTSGTPEGARETSQWTAAHGARYLDGAILATPDFIGTDAGTILLSGALEPFAANEDVFRALGGNVQHIGTEPGLANALDSAVLALMWGALFGGLHAIAVCRAEEIDLGELGRQWAATAPVVEGLVADLIKRTSAGRFVSDAETLSSISPHYGAFQHLKELMEARRIDRTVVDGYDAIFRRAIASGHLHDDFAALSQFMGKAEQP
notes: domain-swapped homodimer, two active sites at the interface
The term Km denotes the substrate concentration at which the rate is half of its maximum. In general, kcat refers to the number of substrate molecules converted per active site and unit of time at saturation. As a reminder, the kcat/Km is the turnover number divided by the Michaelis constant. B1: in series [2] (setting [6]), the Km is recorded as 0.61 mM and the kcat came to 0.30 s⁻¹. Moreover, in series [3] (setting [7]), the Km is 17 mM, the kcat was determined as 0.12 s⁻¹ and the kcat/Km was found to be 7.2 M⁻¹ s⁻¹. For the same molecule, in series [4] (setting [8]), the Km was 15 mM, the kcat is 0.24 s⁻¹ and the specificity constant (kcat/Km) stood at 16 M⁻¹ s⁻¹.

B2: IR77 (wt-IR77) (Ensifer adhaerens; C192I) (protein)
chain: MKPSISVLGTGRMGSALARALLQAGYRTVVWNRTSEKAEPLAALGATVAPTVRQAIDASGIVIVNVSDYAATSTLLRASDVTPGLRGKLIVELTSGTPEGARETSQWTAAHGARYLDGAILATPDFIGTDAGTILLSGALEPFAANEDVFRALGGNVQHIGTEPGLANALDSAVLALMWGALFGGLHAIAVIRAEEIDLGELGRQWAATAPVVEGLVADLIKRTSAGRFVSDAETLSSISPHYGAFQHLKELMEARRIDRTVVDGYDAIFRRAIASGHLHDDFAALSQFMGKAEQP
notes: as for B1
In the case of B2, in series [3] (setting [9]), the Km is 9.0 mM, the kcat amounted to 0.1 s⁻¹ and the kcat/Km is 11 M⁻¹ s⁻¹. Moreover, in series [5], the Km amounted to 16 mM, the kcat was determined as 0.33 s⁻¹ and the kcat/Km is 21 M⁻¹ s⁻¹.

B3: IR77 (wt-IR77) (Ensifer adhaerens; A208N) (protein)
chain: MKPSISVLGTGRMGSALARALLQAGYRTVVWNRTSEKAEPLAALGATVAPTVRQAIDASGIVIVNVSDYAATSTLLRASDVTPGLRGKLIVELTSGTPEGARETSQWTAAHGARYLDGAILATPDFIGTDAGTILLSGALEPFAANEDVFRALGGNVQHIGTEPGLANALDSAVLALMWGALFGGLHAIAVCRAEEIDLGELGRQWANTAPVVEGLVADLIKRTSAGRFVSDAETLSSISPHYGAFQHLKELMEARRIDRTVVDGYDAIFRRAIASGHLHDDFAALSQFMGKAEQP
notes: as for B1
Turning to B3, in series [2] (setting [10]), the Km is given as 0.94 mM and the kcat amounted to 0.28 s⁻¹. In addition, in series [4], the Km is 26 mM, the kcat stood at 0.5 s⁻¹ and the kcat/Km turned out to be 20 M⁻¹ s⁻¹.

B4: IR77 (wt-IR77) (Ensifer adhaerens; A208S) (protein)
chain: MKPSISVLGTGRMGSALARALLQAGYRTVVWNRTSEKAEPLAALGATVAPTVRQAIDASGIVIVNVSDYAATSTLLRASDVTPGLRGKLIVELTSGTPEGARETSQWTAAHGARYLDGAILATPDFIGTDAGTILLSGALEPFAANEDVFRALGGNVQHIGTEPGLANALDSAVLALMWGALFGGLHAIAVCRAEEIDLGELGRQWASTAPVVEGLVADLIKRTSAGRFVSDAETLSSISPHYGAFQHLKELMEARRIDRTVVDGYDAIFRRAIASGHLHDDFAALSQFMGKAEQP
notes: as for B1
Regarding B4, in series [2] (setting [10]), the Km is listed as 0.60 mM and the kcat turned out to be 0.23 s⁻¹. In series [3] (setting [9]), the Km worked out at 9.7 mM, the kcat stood at 0.21 s⁻¹ and the kcat/Km was 22 M⁻¹ s⁻¹. Besides, in series [4] (kcat 0.44), the Km is recorded as 9.6 mM, the kcat came to 0.43 s⁻¹ and the kcat/Km is 45 M⁻¹ s⁻¹.

B5: IR77 (wt-IR77) (Ensifer adhaerens; A119S) (protein)
chain: MKPSISVLGTGRMGSALARALLQAGYRTVVWNRTSEKAEPLAALGATVAPTVRQAIDASGIVIVNVSDYAATSTLLRASDVTPGLRGKLIVELTSGTPEGARETSQWTAAHGARYLDGSILATPDFIGTDAGTILLSGALEPFAANEDVFRALGGNVQHIGTEPGLANALDSAVLALMWGALFGGLHAIAVCRAEEIDLGELGRQWAATAPVVEGLVADLIKRTSAGRFVSDAETLSSISPHYGAFQHLKELMEARRIDRTVVDGYDAIFRRAIASGHLHDDFAALSQFMGKAEQP
notes: as for B1
For the molecule B5, in series [3] (setting [9]), the Km turned out to be 23 mM, the kcat stood at 0.09 s⁻¹ and the kcat/Km is 4 M⁻¹ s⁻¹. Moreover, in series [5], the Km worked out at 16 mM, the kcat came out at 0.25 s⁻¹ and the specificity constant (kcat/Km) was found to be 16 M⁻¹ s⁻¹.
